The target in series [1] is T1, fatty acid synthase subunit encoded by FAS1, twinStrep-II tagged (Saccharomyces cerevisiae) (S. cerevisiae, UniProt P07149 1-2051).
T1 construct: Fatty acid synthase subunit encoded by the FAS1 gene, S. cerevisiae; expressed from plasmid pMF639 (pRS315_FAS1-twinStrep-II); also called strep-tagged FAS; beta (beta-domes)
The series can be described thus: cryo-EM structure; single-particle cryo-EM of purified FAS complex (0.2 mg/ml) on Quantifoil R0.6/1 grids coated with graphene hydrophilized with 1-pyrCA; about 28,000 particles; maps at 4.8 Å (C1) and 4.0 Å (D3). The note with it: both partners purified.

Series [2] deals with the molecule itself. The series is described as above.

T1 sequence (P07149 whole entry): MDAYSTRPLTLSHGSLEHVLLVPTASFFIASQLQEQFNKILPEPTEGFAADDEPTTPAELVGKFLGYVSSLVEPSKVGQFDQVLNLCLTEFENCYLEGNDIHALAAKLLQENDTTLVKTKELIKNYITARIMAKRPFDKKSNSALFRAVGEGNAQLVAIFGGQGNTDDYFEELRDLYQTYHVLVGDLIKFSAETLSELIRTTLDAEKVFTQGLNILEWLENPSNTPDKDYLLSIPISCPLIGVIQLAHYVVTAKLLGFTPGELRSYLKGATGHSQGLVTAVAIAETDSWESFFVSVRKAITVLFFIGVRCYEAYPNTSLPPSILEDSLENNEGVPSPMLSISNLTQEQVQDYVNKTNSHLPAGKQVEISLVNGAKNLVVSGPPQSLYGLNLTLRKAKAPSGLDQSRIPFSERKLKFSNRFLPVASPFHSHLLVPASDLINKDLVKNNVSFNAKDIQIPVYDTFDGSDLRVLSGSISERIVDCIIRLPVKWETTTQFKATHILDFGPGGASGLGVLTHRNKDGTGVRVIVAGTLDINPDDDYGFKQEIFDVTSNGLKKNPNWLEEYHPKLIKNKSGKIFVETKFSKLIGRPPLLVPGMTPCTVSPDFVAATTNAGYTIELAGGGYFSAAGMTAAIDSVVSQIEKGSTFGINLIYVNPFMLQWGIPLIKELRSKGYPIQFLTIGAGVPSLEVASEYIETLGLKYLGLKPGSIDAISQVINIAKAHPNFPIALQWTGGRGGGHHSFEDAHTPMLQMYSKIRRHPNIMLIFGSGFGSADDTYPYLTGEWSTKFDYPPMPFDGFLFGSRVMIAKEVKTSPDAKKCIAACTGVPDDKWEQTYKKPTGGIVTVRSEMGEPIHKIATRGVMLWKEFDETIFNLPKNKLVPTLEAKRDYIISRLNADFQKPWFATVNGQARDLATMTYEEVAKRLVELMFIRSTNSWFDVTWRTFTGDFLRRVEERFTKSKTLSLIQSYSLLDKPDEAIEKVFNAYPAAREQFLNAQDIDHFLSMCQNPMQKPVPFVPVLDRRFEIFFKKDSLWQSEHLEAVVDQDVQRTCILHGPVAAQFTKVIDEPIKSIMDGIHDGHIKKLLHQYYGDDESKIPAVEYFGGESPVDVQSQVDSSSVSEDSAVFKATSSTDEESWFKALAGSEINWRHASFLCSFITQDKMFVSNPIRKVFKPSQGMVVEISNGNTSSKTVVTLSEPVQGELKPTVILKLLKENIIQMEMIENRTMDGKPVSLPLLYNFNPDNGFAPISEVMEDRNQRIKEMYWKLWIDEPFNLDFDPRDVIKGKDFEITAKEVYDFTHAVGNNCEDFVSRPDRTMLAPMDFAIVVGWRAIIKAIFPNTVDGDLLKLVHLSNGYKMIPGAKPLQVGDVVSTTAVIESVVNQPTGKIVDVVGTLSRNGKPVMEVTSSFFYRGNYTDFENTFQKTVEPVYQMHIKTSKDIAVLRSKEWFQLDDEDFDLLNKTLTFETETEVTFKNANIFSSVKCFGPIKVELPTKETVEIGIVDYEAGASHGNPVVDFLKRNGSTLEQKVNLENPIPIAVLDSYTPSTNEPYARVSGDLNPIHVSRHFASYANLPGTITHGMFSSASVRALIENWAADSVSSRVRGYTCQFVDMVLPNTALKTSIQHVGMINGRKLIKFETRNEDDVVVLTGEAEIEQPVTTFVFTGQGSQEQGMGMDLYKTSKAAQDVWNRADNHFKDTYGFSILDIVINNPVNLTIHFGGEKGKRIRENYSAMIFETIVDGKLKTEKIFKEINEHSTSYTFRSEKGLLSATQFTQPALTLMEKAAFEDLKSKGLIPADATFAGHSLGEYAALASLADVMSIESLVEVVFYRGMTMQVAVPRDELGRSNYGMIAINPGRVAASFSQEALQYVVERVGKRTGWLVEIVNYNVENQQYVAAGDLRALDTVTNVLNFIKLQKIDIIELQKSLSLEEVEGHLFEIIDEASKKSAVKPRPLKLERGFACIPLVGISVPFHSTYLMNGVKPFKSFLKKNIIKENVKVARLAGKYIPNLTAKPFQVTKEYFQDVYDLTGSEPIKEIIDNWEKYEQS

B1: fatty acid synthase subunit encoded by FAS2 (Saccharomyces cerevisiae) (enzyme, S. cerevisiae, UniProt P19097 1-1887, looked up)
chain: MKPEVEQELAHILLTELLAYQFASPVRWIETQDVFLKDFNTERVVEIGPSPTLAGMAQRTLKNKYESYDAALSLHREILCYSKDAKEIYYTPDPSELAAKEEPAKEEAPAPTPAASAPAPAAAAPAPVAAAAPAAAAAEIADEPVKASLLLHVLVAHKLKKSLDSIPMSKTIKDLVGGKSTVQNEILGDLGKEFGTTPEKPEETPLEELAETFQDTFSGALGKQSSSLLSRLISSKMPGGFTITVARKYLQTRWGLPSGRQDGVLLVALSNEPAARLGSEADAKAFLDSMAQKYASIVGVDLSSAASASGAAGAGAAAGAAMIDAGALEEITKDHKVLARQQLQVLARYLKMDLDNGERKFLKEKDTVAELQAQLDYLNAELGEFFVNGVATSFSRKKARTFDSSWNWAKQSLLSLYFEIIHGVLKNVDREVVSEAINIMNRSNDALIKFMEYHISNTDETKGENYQLVKTLGEQLIENCKQVLDVDPVYKDVAKPTGPKTAIDKNGNITYSEEPREKVRKLSQYVQEMALGGPITKESQPTIEEDLTRVYKAISAQADKQDISSSTRVEFEKLYSDLMKFLESSKEIDPSQTTQLAGMDVEDALDKDSTKEVASLPNKSTISKTVSSTIPRETIPFLHLRKKTPAGDWKYDRQLSSLFLDGLEKAAFNGVTFKDKYVLITGAGKGSIGAEVLQGLLQGGAKVVVTTSRFSKQVTDYYQSIYAKYGAKGSTLIVVPFNQGSKQDVEALIEFIYDTEKNGGLGWDLDAIIPFAAIPEQGIELEHIDSKSEFAHRIMLTNILRMMGCVKKQKSARGIETRPAQVILPMSPNHGTFGGDGMYSESKLSLETLFNRWHSESWANQLTVCGAIIGWTRGTGLMSANNIIAEGIEKMGVRTFSQKEMAFNLLGLLTPEVVELCQKSPVMADLNGGLQFVPELKEFTAKLRKELVETSEVRKAVSIETALEHKVVNGNSADAAYAQVEIQPRANIQLDFPELKPYKQVKQIAPAELEGLLDLERVIVVTGFAEVGPWGSARTRWEMEAFGEFSLEGCVEMAWIMGFISYHNGNLKGRPYTGWVDSKTKEPVDDKDVKAKYETSILEHSGIRLIEPELFNGYNPEKKEMIQEVIVEEDLEPFEASKETAEQFKHQHGDKVDIFEIPETGEYSVKLLKGATLYIPKALRFDRLVAGQIPTGWNAKTYGISDDIISQVDPITLFVLVSVVEAFIASGITDPYEMYKYVHVSEVGNCSGSGMGGVSALRGMFKDRFKDEPVQNDILQESFINTMSAWVNMLLISSSGPIKTPVGACATSVESVDIGVETILSGKARICIVGGYDDFQEEGSFEFGNMKATSNTLEEFEHGRTPAEMSRPATTTRNGFMEAQGAGIQIIMQADLALKMGVPIYGIVAMAATATDKIGRSVPAPGKGILTTAREHHSSVKYASPNLNMKYRKRQLVTREAQIKDWVENELEALKLEAEEIPSEDQNEFLLERTREIHNEAESQLRAAQQQWGNDFYKRDPRIAPLRGALATYGLTIDDLGVASFHGTSTKANDKNESATINEMMKHLGRSEGNPVIGVFQKFLTGHPKGAAGAWMMNGALQILNSGIIPGNRNADNVDKILEQFEYVLYPSKTLKTDGVRAVSITSFGFGQKGGQAIVVHPDYLYGAITEDRYNEYVAKVSAREKSAYKFFHNGMIYNKLFVSKEHAPYTDELEEDVYLDPLARVSKDKKSGSLTFNSKNIQSKDSYINANTIETAKMIENMTKEKVSNGGVGVDVELITSINVENDTFIERNFTPQEIEYCSAQPSVQSSFAGTWSAKEAVFKSLGVKSLGGGAALKDIEIVRVNKNAPAVELHGNAKKAAEEAGVTDVKVSISHDDLQAVAVAVSTKK
notes: Fatty acid synthase subunit encoded by the FAS2 gene, S. cerevisiae; expressed from plasmid pMF319d (pRS313_FAS2); also called alpha (alpha wheel)
On to B1, for which the binding result in series [1] and in series [2] was “binds” throughout.

These data come from paper doi:10.1101/400432, “The deadly touch: protein denaturation at the water-air interface and how to prevent it” (bioRxiv, 2018).
